This series deals with CsrA-His6 (Escherichia coli, UniProt P69913 1-61). As to the kind of experiment: EMSA; 10 mM Mg2+; apparent KD, cooperative equation; single shift; EMSA: 0.5 nM RNA, 10 mM MgCl2, 100 mM KCl, 32.5 ng yeast RNA, 20 mM DTT, 7.5% glycerol, 4 U SUPERasin, 37 C 30 min (pH not stated); footprint: 2 nM RNA, 10 mM Tris-HCl pH 7.5, 10 mM MgCl2, 100 mM KCl, 40 ng yeast RNA, 7.5% glycerol, 37 C. The settings on record: protein: recombinant; tags: His6 (C-terminal per name); chain copies: 2; label: 5'-32P.
CsrA-His6, sequence (P69913 whole entry): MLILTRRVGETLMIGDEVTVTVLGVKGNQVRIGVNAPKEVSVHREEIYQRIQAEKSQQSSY

B1: dps EMSA transcript (ssRNA)
RNA: GGGUUAAUUACUGGGACAUAACAUCAAGAGGAUAUGAAAUUAUGAGUACCGC
As for B1, the Kd worked out at 25 nM.

For the origin of these results see publication PMC6686035, “Regulation of Iron Storage by CsrA Supports Exponential Growth of Escherichia coli”.
